Assay [1] concerns the target T1, human CD8 on cells (CD8-overexpressing HEK293T cells, SupT1, HPB-ALL, human T cells, transfected HEK293 of … (human, UniProt P01732 22-235)).
T1 construct: whole, on cells; also called cell surface CD8
Kind of assay: flow cytometry on CD8-overexpressing HEK293T cells, non-linear fit of normalized gMFI. As for the experimental part: To obtain the results shown in FIG. 3A, that determined EC₅₀ values for antigen-specific binding, CD8-overexpressing HEK293T cells were dissociated in Versine solution (PBS buffer at pH 7.4 supplemented with 0.5 mM EDTA), and 2×10⁵ total cells were transferred to a V-bottom 96 well culture plate (Corning). Cells were washed twice with Cell Staining buffer (#420201, Biolegend). Each anti-CD8α antibody with human IgG1 isotype and Fc-silencing mutations L234A, L235A and P329A was diluted in four-fold antibody titration series from 100 μg/mL to 6.1 ng/ml into Cell Staining buffer. eFluor 780 Fixable Viability dye (eBioscience) was also included during antibody solutions at a 1:4000 dilution. Cells were stained with each diluted antibody solution for 30 minutes on ice. Cells were then washed three times with Cell Staining buffer and primary antibody binding was detected by staining with anti-human Fc BV421 conjugate antibody (#410704, Biolegend) at 1:100 dilution for 30 minutes on ice. After staining with the secondary detection antibody, cells were washed three times with Cell Staining buffer, fixed in FluoroFix buffer (Biolegend) and kept at 4° C. in the dark until analysis. Flow cytometry analysis on each sample was performed on an Agilent NovoCyte flow cytometer. Flow cytometry data was analyzed by Flowjo 10 (Becton, Dickinson & Company) to measure the geometric median fluorescence intensity (gMFI) of the on-cell binding from each antibody. The gMFI values were normalized with the gMFI measured in the sample stained with only the secondary detection antibody and plotted against the concentration of the added antibodies. The binding curves were constructed using the Graphpad Prism software, and EC₅₀ values were determined by non-linear curve fitting.

Assay [2] deals with T2, human CD8αα homodimer, recombinant protein (Acro Biosystems) (human, UniProt P01732 22-182).
T2 construct: also called CD8αα antigen; biotinylated CD8α recombinant protein (CDA-H82E3)
Kind of assay: BLI steady state, whole hIgG1-LALAPA antibody on CD8α-His (Ni-NTA sensor), 30 °C. Here is the method:
To assess affinity of whole antibodies, steady state analysis was used as the bivalent nature of both whole antibody and CD8α complicates kinetic analysis. 50 nM CD8α-His (that is, CD8α with a C-terminal oligohistidine tag; Acro) was immobilized on Ni-NTA sensor probes. Binding was analyzed with a three-fold antibody dilutions series: 60 nM, 20 nM, 6.67 nM, 2.22 nM, 0.74 nM, and 0.25 nM. The antigen-loaded sensors were incubated in the diluted solutions to capture the whole IgG antibody for 300 s to record the association phase. Sensors were incubated in the kinetic buffer for 900 s to record the dissociation phase. The spin speed was 1000 rpm for all steps except the antigen loading step which was 400 rpm to control density of the antigen. The temperature of the performed assays was at 30° C. during the association and dissociation phases. The sensor data were baseline subtracted and further analyzed in GatorOne software (version 2.10) to determine the equilibrium dissociation constants (KD) of the antibodies by fitting the signals of the steady states to the 1:1 binding model.

The target in another assay is T3, insulin (Sigma).
T3 construct: Antigen of the polyreactivity ELISA
Kind of assay: polyreactive ELISA, insulin coated, 100 nM antibody. Here is the method: Insulin ([…]; Sigma) and dsDNA ([…]; Sigma) were coated onto 96-well high-binding ELISA microplates (Corning) at 50 μL per well overnight at 4° C. Plates were blocked with PBS with 0.5% BSA (blocking buffer) at room temperature (RT) for 1 h, followed by three washes with PBST (PBS with 0.1% Tween-20). 50 μL of 100 nM antibody in blocking buffer was added to each well and incubated at RT for 1 h, followed by six washes with 100 μL of PBS. 50 μL of diluted anti-human IgG-horseradish peroxidase (HRP) conjugate (Jackson ImmunoResearch) was added to the wells and incubated for 1 h followed by another six washes. Finally, 50 μL of 3, 3′, 5, 5′-Tetramethylbenzidine (TMB) substrate (Fisher Scientific) was added to each well to develop the detection signal. The reactions were stopped by adding 50 μL of 2 M sulfuric acid to each well. The absorbance was measured at 450 nm using a multimode microplate reader. Ustekinumab as the control antibody with low polyreactivity and bococizumab as a highly polyreactive antibody control were also included in the polyreactive ELISA assessment.
The first assessment tested for low non-specific binding to dsDNA and insulin by ELISA. […] Thus, by this standard, none of the tested antibodies were polyreactive.

Assay [3] deals with T4, custom recombinant human CD8α mouse IgG2a Fc fusion protein (human; mouse, UniProt P01732 22-182, limits assumed).
T4 construct: Custom protein; also called human CD8α mouse Fc fusion protein; not shown: mouse IgG2a Fc
Kind of assay: BLI kinetics, biotin-conjugated F(ab') on SA-XT sensor, HuCD8a mouse Fc fusion as analyte, 37 °C. Here is the method:
The global fitting was performed with a 1:1 fitting model using GatorOne software as described below.
To measure the binding kinetics of the biotin-conjugated Fab molecule, streptavidin-immobilized SA-XT sensors (#160029, Gator Bio) were prehydrated in the kinetic buffer and loaded with […] biotinylated Fab sample CBD1033.37 or CBD1033.24 to a threshold response of 10 nm. […] The binder-loaded sensors were incubated in the diluted solutions to capture the CD8α protein for 1200 s to record the association phase. Sensors were finally incubated in the kinetic buffer for another 1200 s to record the dissociation phase. The spin speed for all steps was 1000 rpm. The temperature of the performed assays were at 37° C. during the association and dissociation. The sensor data were baseline subtracted, and global curve fitting of the kinetic data from six different analyte concentrations at a 1:1 monovalent binding model was performed using the GatorOne software (version v2.10) to determine the kinetic rate constants (kₒₙ and koff) and equilibrium dissociation constants (KD) of the analyzed binder.

The target in assay [4] is T2, human CD8αα homodimer, recombinant …. Kind of assay: BLI kinetics, Fab, 37 °C. As for the experimental part: (§1) Biolayer interferometry kinetic assays were performed using a GatorBio Gator Plus BLI system. Kinetic buffer containing PBS plus 0.1% Tween 20 and 0.2% BSA was used for calculating the baseline. To measure the binding kinetics of anti-CD8α antibody fragment (Fab), streptavidin-immobilized SA-XT sensors (#160029, Gator Bio) were prehydrated in the kinetic buffer and loaded with […] biotinylated CD8α recombinant protein (CDA-H82E3, Acro Biosystems) at a spin speed of 400 rpm to a threshold response of 10 nm. The sensors were then incubated in the kinetic buffer for 300 s to acquire a baseline measurement prior to each association. […] The antigen-loaded sensors were incubated in the diluted solutions to capture Fab fragments for 300 s to record the association phase. Sensors were finally incubated in the kinetic buffer for 900 s to record the dissociation phase. The spin speed for all steps except the antigen loading step was 1000 rpm. The temperature of the performed assays was either 30° C. or 37° C. during the association and dissociation phases. Sensor data were baseline subtracted, and global curve fitting of the kinetic data from six different analyte concentrations at a 1:1 monovalent binding model was performed using GatorOne software (version v2.10) to determine kinetic rate constants (kₒₙ and koff) and equilibrium dissociation constants (KD) of the analyzed antibodies.
(§2) The binding kinetics of CBD1033 Fab and its parental CBD1017ch Fab against human CD8αα homodimer, human CD8αβ heterodimer, and cynomolgus macaque CD8ααhomodimer were assessed following the same method in BLI evaluation of humanized Fab variants. For evaluating the binding kinetics against cynomolgus macaque CD8αβ heterodimer protein, the antigen protein was directly coupled onto amine-reactive biosensor tips (Gator Bio) following the manufacturer protocol. Briefly, the sensors were activated for 300 s with a mixture of 1-ethyl-3-(3-dimethylaminopropyl)carbodiimide hydrochloride (EDC) (ThermoFisher Scientific) and 10 mM N-Hydroxysulfosuccinimide sodium salt (sulfo-NHS) (Sigma-Aldrich) in water.

Assay [5] deals with human CD8αβ heterodimer, recombinant protein (human, UniProt P01732 22-182; P10966 22-170, limits assumed). Kind of assay: BLI kinetics, Fab, 37 °C. Here is the method:
as §1, §2

For assay [6], the target named is T5, cynomolgus macaque CD8αα homodimer, recombinant protein (cynomolgus macaque).
T5 construct: also called cynomolgus CD8αα homodimer
Kind of assay: BLI kinetic sensorgram, 1:1 global fit (legend: 30 °C; FIG. 2I prints 37 °C for the same constants). Here is the method: as §1, §2

For assay [7], the target named is T2, human CD8αα homodimer, recombinant …. Kind of assay: BLI kinetics, F(ab) on biotinylated CD8α (SA-XT sensor), 1:1 fit, 37 °C [CONT'ED]. Here is the method: as §1
The target of assay [8] is T6, cynomolgus macaque CD8αβ heterodimer, recombinant protein (cynomolgus macaque).
T6 construct: In BLI coupled directly to amine-reactive sensor tips; also called cynomolgus CD8αβ heterodimer
Kind of assay: BLI kinetics, Fab, antigen amine-coupled to the sensor, 30 °C. As for the experimental part:
The binding kinetics of CBD1033 Fab and its parental CBD1017ch Fab against human CD8αα homodimer, human CD8αβ heterodimer, and cynomolgus macaque CD8ααhomodimer were assessed following the same method in BLI evaluation of humanized Fab variants. For evaluating the binding kinetics against cynomolgus macaque CD8αβ heterodimer protein, the antigen protein was directly coupled onto amine-reactive biosensor tips (Gator Bio) following the manufacturer protocol. Briefly, the sensors were activated for 300 s with a mixture of 1-ethyl-3-(3-dimethylaminopropyl)carbodiimide hydrochloride (EDC) (ThermoFisher Scientific) and 10 mM N-Hydroxysulfosuccinimide sodium salt (sulfo-NHS) (Sigma-Aldrich) in water. The cynomolgus macaque CD8αβ protein diluted to […] in 10 mM sodium acetate buffer, pH 6.0, was allowed to be covalently captured for 300 s to an approximate threshold of 5 nm, and the sensors were subsequently deactivated with 1 M ethanolamine (ETA) (Sigma-Aldrich) solution, pH 8.5, for 300 s. The sensors were then rinsed in the kinetic buffer for 600 s. The rinse step was repeated for an additional 120 s for baseline calculation prior to the measurements of the binding kinetics. The antibody fragment was diluted into kinetic buffer via 3-fold dilution at concentrations ranging from 1000 nM to 1.37 nM. As above, the antigen-captured sensors were incubated in the diluted solutions to capture the Fab fragments for 1200 s to record the association phase. Sensors were subsequently incubated in the kinetic buffer for 1200 s to record the dissociation phase. The shaking speed for all steps was 1000 rpm and the temperature of the performed assays were at 30° C. The kinetic parameters were determined with 1:1 monovalent (Langmuir) binding model using the previous method.

Assay [9] addresses T5, cynomolgus macaque CD8αα homodimer, …. Kind of assay: BLI kinetics, Fab, 37 °C as printed in the table. As for the experimental part: as §1, §2
For assay [10], the target named is T2, human CD8αα homodimer, recombinant …. Kind of assay: BLI kinetics, F(ab) on biotinylated CD8α (SA-XT sensor), 1:1 fit, 30 °C. As for the experimental part: as §1

T4 sequence (P01732 22-182 limits assumed): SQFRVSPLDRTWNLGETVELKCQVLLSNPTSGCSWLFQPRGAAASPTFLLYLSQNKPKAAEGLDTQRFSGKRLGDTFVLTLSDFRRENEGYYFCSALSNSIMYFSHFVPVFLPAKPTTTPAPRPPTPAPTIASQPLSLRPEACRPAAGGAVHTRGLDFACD
Sequence of human CD8αβ heterodimer, recombinant protein (P01732 22-182 limits assumed, chain 1 of 2): as the sequence (P01732 22-182 limits assumed) above
Sequence of human CD8αβ heterodimer, recombinant protein (P10966 22-170 limits assumed, chain 2 of 2): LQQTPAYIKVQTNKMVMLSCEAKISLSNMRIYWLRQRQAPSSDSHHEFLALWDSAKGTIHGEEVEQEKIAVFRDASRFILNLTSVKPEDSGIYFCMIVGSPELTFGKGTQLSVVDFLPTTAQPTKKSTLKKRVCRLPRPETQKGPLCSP
T2 sequence (P01732 22-182 limits assumed): as the sequence (P01732 22-182 limits assumed) above
T3 sequence (P01308 25-54, chain 1 of 2): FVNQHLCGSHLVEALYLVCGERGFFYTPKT
T3 sequence (P01308 90-110, chain 2 of 2): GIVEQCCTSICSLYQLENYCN
T1 sequence (P01732 22-235): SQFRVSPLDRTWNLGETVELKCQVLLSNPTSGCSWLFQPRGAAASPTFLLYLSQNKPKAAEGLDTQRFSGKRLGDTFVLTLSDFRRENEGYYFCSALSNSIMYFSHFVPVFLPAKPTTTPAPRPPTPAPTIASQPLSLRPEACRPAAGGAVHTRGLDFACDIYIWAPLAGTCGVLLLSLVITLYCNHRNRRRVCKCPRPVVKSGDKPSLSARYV

B1: CBD1032 whole antibody, Fc-silenced human IgG1 (LALAPA) (antibody, V domains shown)
VH: QVQLVQSGAEVKKPGASVKVSCKASRYTFTDYNLHWVRQAPGQGLEWMGFIYPYNGGTGYAQKFQGRVTMTRDTSTSTVYMELSSLRSEDTAVYYCARDHRYNEGVSFDYWGQGTTVTVSS
VL: DIQMTQSPSSLSASVGDRVTITCRASESVDGFGNSFMNWYQQKPGKAPKLLIYLASNLESGVPSRFSGSGSGTDFTLTISSLQPEDFATYYCQQNNEDPYTFGQGTKLEIKR
Consider B1, for which the EC50 in [1] is 2.35 nM. Further, the Kd in [2] was determined as 1.4 nM. The “polyreactivity ELISA score” value with insulin (Sigma) was determined as 1.

B2: maleimide-PEG-biotin conjugated CBD1033.24 F(ab') (IgG4-derived) (Fab, V domains shown)
VH: QVQLVQSGAEVKKPGASVKVSCKASRYTFTDYNLHWVRQAPGQGLEWMGFIYPYNGGTGYAQKFQGRVTMTVDTSTSTAYMELSSLRSEDTAVYYCARDHRYNEGVSFDYWGQGTTVTVSS
VL: DIQLTQSPSSLSASVGDRATITCRASESVDGFGNSFMNWYQQKPGKAPKLLIYLASNLESGVPSRFSGSGSGTDFTLTISSVQPEDFATYYCQQNNEDPYTFGQGTKLEIKR
modifications: maleimide-PEG11-biotin on CH C227 (sequential numbering, corresponding to C239 in Kabat numbering)
notes: Loaded on streptavidin sensors through the biotin; also called biotinylated Fab sample CBD1033.24
Consider B2, for which, in [3], the Kd turned out to be 4.01 nM, the koff was found to be 0.00013 s⁻¹ and the on-rate (kon) was 32400 M⁻¹ s⁻¹.

B3: CBD1017ch Fab (chimeric CT8 Fab) (Fab, V domains shown)
VH: EVQLQQSGPELVKPGASVKISCKASRYTFTDYNLHWVKLSHEKSLEWIGFIYPYNGGTGYNQKFKNKAKLTVDYSSSTAYMELRSLTSVDAAVYYCARDHRYNEGVSFDYWGQGTTLTVSS
VL: NIVLTQSPASLAVSLGQRATISCRASESVDGFGNSFMNWYQQKPGQSPKLLIYLASNLESGVPARFSGSGSRTDFTLTIDPVEADDAATYYCQQNNEDPYTFGGGTKLEIK
notes: Chimeric: variable regions of mouse CT8 (clone RPA-T8) with human constant parts; also called parental CBD1017ch Fab
Consider B3, for which the Kd in [4] came to 1.08 nM; in [5] it was 5.75 nM; in assay [6], 2.26 nM; in assay [7], 1.08 nM; in [8] it was 24.8 nM; in assay [9], 2.26 nM. Also, the Kd in assay [10] was 0.814 nM. For the same molecule, the off-rate (koff) amounted to 7.53e-05 s⁻¹ in assay [4]; 0.000179 s⁻¹ in [5]; 6.93e-05 s⁻¹ in assay [6]; 7.53e-05 s⁻¹ in assay [7]; 0.000503 s⁻¹ in assay [8]; 6.93e-05 s⁻¹ in [9]. Further, in assay [10], the koff was 5.67e-05 s⁻¹. Further, the kon was 69500 M⁻¹ s⁻¹ in assay [4]; 31200 M⁻¹ s⁻¹ in [5]; 30700 M⁻¹ s⁻¹ in [6]; 69500 M⁻¹ s⁻¹ in assay [7]; 20300 M⁻¹ s⁻¹ in [8]; 30700 M⁻¹ s⁻¹ in assay [9]. Moreover, in [10], the kon was 69700 M⁻¹ s⁻¹.

The record behind these values is patent publication US20250195685A1 (CAPSTAN THERAPEUTICS, published 2025).
